From paper PMC6515407, “Laccases with Variable Properties from Different Strains of Steccherinum ochraceum: Does Glycosylation Matter?” (International Journal of Molecular Sciences, 2019) come the findings set out here.

What all share (conditions): 0.1 M McIlvaine buffer pH 4.5, 25 °C, native glycosylated enzyme
Substrate in data set [1]: COc1cc(C=NN=Cc2cc(OC)c(O)c(OC)c2)cc(OC)c1O
In words: spectrophotometric oxidation kinetics. It is filed as biochemical, Steccherinum ochraceum. From the text:
(§1) spectrophotometric oxidation kinetics on So3827

Substrate in data set [2]: CCn1c(=NN=c2sc3cc(S(=O)(=O)O)ccc3n2CC)sc2cc(S(=O)(=O)O)ccc21
The data set can be described thus: spectrophotometric oxidation kinetics. The data set is classed as biochemical, Steccherinum ochraceum.
Text: as §1

Substrate in data set [3]: COc1cc(C=NN=Cc2cc(OC)c(O)c(OC)c2)cc(OC)c1O
In words: spectrophotometric oxidation kinetics. The data set is classed as biochemical, Steccherinum ochraceum. From the text: (§2) spectrophotometric oxidation kinetics on So3120
This is another data set of the same source.

Substrate in data set [4]: COc1cccc(OC)c1O
In words: spectrophotometric oxidation kinetics. It is filed as biochemical, Steccherinum ochraceum.
Text: as §2

Substrate in data set [5]: CCn1c(=NN=c2sc3cc(S(=O)(=O)O)ccc3n2CC)sc2cc(S(=O)(=O)O)ccc21
The data set can be described thus: spectrophotometric oxidation kinetics. It is filed as biochemical, Steccherinum ochraceum.
Text: as §2
The source holds these as a separate data set.

Substrate in data set [6]: COc1cc(C=NN=Cc2cc(OC)c(O)c(OC)c2)cc(OC)c1O
The data set can be described thus: spectrophotometric oxidation kinetics. It is filed as biochemical, Steccherinum ochraceum. From the text:
(§3) spectrophotometric oxidation kinetics on So3622
This is another data set of the same source.

Substrate in data set [7]: CCn1c(=NN=c2sc3cc(S(=O)(=O)O)ccc3n2CC)sc2cc(S(=O)(=O)O)ccc21
In words: spectrophotometric oxidation kinetics. The data set is classed as biochemical, Steccherinum ochraceum.
Text: as §3
The source holds these as a separate data set.

Substrate in data set [8]: COc1cc(C=NN=Cc2cc(OC)c(O)c(OC)c2)cc(OC)c1O
In words: spectrophotometric oxidation kinetics. The data set is classed as biochemical, Steccherinum ochraceum. From the text:
(§4) spectrophotometric oxidation kinetics on So3398
This is another data set of the same source.

Substrate in data set [9]: COc1cccc(OC)c1O
The data set can be described thus: spectrophotometric oxidation kinetics. It is filed as biochemical, Steccherinum ochraceum.
Text: as §4
This is another data set of the same source.

Substrate in data set [10]: CCn1c(=NN=c2sc3cc(S(=O)(=O)O)ccc3n2CC)sc2cc(S(=O)(=O)O)ccc21
In words: spectrophotometric oxidation kinetics. It is filed as biochemical, Steccherinum ochraceum.
Text: as §4
The source holds these as a separate data set.

Substrate in data set [11]: COc1cc(C=NN=Cc2cc(OC)c(O)c(OC)c2)cc(OC)c1O
In words: spectrophotometric oxidation kinetics. The data set is classed as biochemical, Steccherinum ochraceum. From the text:
(§5) spectrophotometric oxidation kinetics on So3617
This is another data set of the same source.

Substrate in data set [12]: CCn1c(=NN=c2sc3cc(S(=O)(=O)O)ccc3n2CC)sc2cc(S(=O)(=O)O)ccc21
The data set can be described thus: spectrophotometric oxidation kinetics. The data set is classed as biochemical, Steccherinum ochraceum.
Text: as §5
This is another data set of the same source.

Substrate in data set [13]: COc1ccccc1O
In words: purified protein.

Substrate in data set [14]: COc1cc(C=NN=Cc2cc(OC)c(O)c(OC)c2)cc(OC)c1O
In words: spectrophotometric oxidation kinetics. It is filed as biochemical, Steccherinum ochraceum. From the text:
(§6) spectrophotometric oxidation kinetics on So3174
The source holds these as a separate data set.

Substrate in data set [15]: COc1cccc(OC)c1O
In words: spectrophotometric oxidation kinetics. It is filed as biochemical, Steccherinum ochraceum.
Text: as §6
The source holds these as a separate data set.

Substrate in data set [16]: CCn1c(=NN=c2sc3cc(S(=O)(=O)O)ccc3n2CC)sc2cc(S(=O)(=O)O)ccc21
In words: spectrophotometric oxidation kinetics. The data set is classed as biochemical, Steccherinum ochraceum.
Text: as §6
The source holds these as a separate data set.

Substrate in data set [17]: Oc1ccccc1O
The data set can be described thus: spectrophotometric oxidation kinetics. The data set is classed as biochemical, Steccherinum ochraceum.
Text: as §6

B1: So3827 (Steccherinum ochraceum) (protein)
chain: VQIGPVTDLHITNANIAPDGFTRPAVLAGGTFPGPTISGNTGDNFQITVFNELTETSMLTDTSIHWHGLFQKGTNWADGPAFVTQCPIITGNSFDYNFNVPGQAGTYWYHSHLSTQYCDGLRGPFVVYDPNDPNASLYDVDDDTTIITLADWYHTLAQQEPIGAAITADATLINGLGRSFTNTTASPLSVITVQSGKRYRMRLVSISCDPNYQFSIDGHDMTIIEVDGVNSQQLTVDQIQIFAAQRYSFVLNANQPVGNYWIRAQPNSGGQGFDGGINSAILRYEGATVADPTTSPPTTFTSPLVETNLHPLADLGVPGQPFRGGADDPMVLNLGFANGRFTIDGVSFVPPTVPVLLQILSGAQNAQDLLPAGSVISLPPNSVIEVALPAGAAGGPHPFHLHGHNFAVVQSANNATPNYVNPIWRDTVSIGGTGDNVTIRFTTNNPGPWFLHCHIDWHLEAGFAIVFAEDIPDTASANPVPQAWSDLCPAYDQAHNISTAT
As usually defined, the Km is the concentration of substrate that gives half-maximal velocity. What is called kcat is the number of substrate molecules converted per active site and unit of time at saturation. The kcat/Km is the turnover number divided by the Michaelis constant. As for B1, in data set [1], the Km is 6.7 ± 0.9 µM, the kcat turned out to be 113 ± 12 s⁻¹ and the kcat/Km stood at 1.69e+07 ± 2.87e+06 M⁻¹ s⁻¹. Further, in data set [2], the Km is recorded as 200 ± 7 µM, the kcat worked out at 276 ± 31 s⁻¹ and the catalytic efficiency (kcat/Km) is 1.38e+06 ± 162000 M⁻¹ s⁻¹.

B2: So3120 (Steccherinum ochraceum) (protein)
chain: VQIGPVTDLHITNANIAPDGFTRPAVLAGGTFPGPTISGNTGDNFQITVFNELTETSMLTDTSIHWHGLFQKGTNWADGPAFVTQCPIITGNSFDYNFNVPGQAGTYWYHSHLSTQYCDGLRGPFVVYDPNDPNASLYDVDDDTTIITLADWYHTLAQQEPIGAAITADATLINGLGRSFTNTTASPLSVITVQSGKRYRMRLVSISCDPNYQFSIDGHDMTIIEVDGVNSQQLTVDQIQIFAAQRYSFVLNANQPVGNYWIRAQPNSGGQGFDGGINSAILRYEGATVADPTTSPPTTFTSPLVETNLHPLADLGVPGQPFRGGADDPMVLNLGFANGRFTIDGVSFVPPTVPVLLQILSGAQNAQDLLPAGSVISLPPNSVIEVALPAGAAGGPHPFHLHGHNFAVVQSANNATPNYVNPIWRDTVSIGGTGDNVTIRFTTNNPGPWFLHCHIDWHLEAGFAIVFAEDIPDTASANPVPQAWSDLCPAYDQAHNISTAT
For the protein B2, in [3], the Michaelis-Menten constant (Km) turned out to be 5.4 ± 0.8 µM, the kcat is 105 ± 12 s⁻¹ and the catalytic efficiency (kcat/Km) was found to be 1.94e+07 ± 3.62e+06 M⁻¹ s⁻¹. Besides, in [4], the Michaelis-Menten constant (Km) was 17 ± 3 µM, the catalytic constant (kcat) is 110 ± 14 s⁻¹ and the kcat/Km amounted to 6.47e+06 ± 1.27e+06 M⁻¹ s⁻¹. For the same protein, in data set [5], the Michaelis-Menten constant (Km) came to 175 ± 23 µM, the kcat amounted to 325 ± 28 s⁻¹ and the catalytic efficiency (kcat/Km) is 1.86e+06 ± 290000 M⁻¹ s⁻¹.

B3: So3622 (Steccherinum ochraceum) (protein)
chain: VQIGPVTDLHITNANIAPDGFTRPAVLAGGTFPGPTISGNTGDNFQITVFNELTETSMLTDTSIHWHGLFQKGTNWADGPAFVTQCPIITGNSFDYNFNVPGQAGTYWYHSHLSTQYCDGLRGPFVVYDPNDPNASLYDVDDDTTIITLADWYHTLAQQEPIGAAITADATLINGLGRSFTNTTASPLSVITVQSGKRYRMRLVSISCDPNYQFSIDGHDMTIIEVDGVNSQQLTVDQIQIFAAQRYSFVLNANQPVGNYWIRAQPNSGGQGFDGGINSAILRYEGATVADPTTSPPTTFTSPLVETNLHPLADLGVPGQPFRGGADDPMVLNLGFANGRFTIDGVSFVPPTVPVLLQILSGAQNAQDLLPAGSVISLPPNSVIEVALPAGAAGGPHPFHLHGHNFAVVQSANNATPNYVNPIWRDTVSIGGTGDNVTIRFTTNNPGPWFLHCHIDWHLEAGFAIVFAEDIPDTASANPVPQAWSDLCPAYDQAHNISTAT
In the case of B3, in data set [6], the Km is 5.5 ± 0.7 µM, the kcat came out at 83 ± 7 s⁻¹ and the kcat/Km worked out at 1.51e+07 ± 2.21e+06 M⁻¹ s⁻¹. In [7], the Km worked out at 174 ± 11 µM, the kcat turned out to be 252 ± 20 s⁻¹ and the kcat/Km was 1.45e+06 ± 147000 M⁻¹ s⁻¹.

B4: So3398 (Steccherinum ochraceum) (protein)
chain: VQIGPVTDLHITNANIAPDGFTRPAVLAGGTFPGPTISGNTGDNFQITVFNELTETSMLTDTSIHWHGLFQKGTNWADGPAFVTQCPIITGNSFDYNFNVPGQAGTYWYHSHLSTQYCDGLRGPFVVYDPNDPNASLYDVDDDTTIITLADWYHTLAQQEPIGAAITADATLINGLGRSFTNTTASPLSVITVQSGKRYRMRLVSISCDPNYQFSIDGHDMTIIEVDGVNSQQLTVDQIQIFAAQRYSFVLNANQPVGNYWIRAQPNSGGQGFDGGINSAILRYEGATVADPTTSPPTTFTSPLVETNLHPLADLGVPGQPFRGGADDPMVLNLGFANGRFTIDGVSFVPPTVPVLLQILSGAQNAQDLLPAGSVISLPPNSVIEVALPAGAAGGPHPFHLHGHNFAVVQSANNATPNYVNPIWRDTVSIGGTGDNVTIRFTTNNPGPWFLHCHIDWHLEAGFAIVFAEDIPDTASANPVPQAWSDLCPAYDQAHNISTAT
Consider B4, for which the Km is 5.6 ± 0.8 µM in data set [8], 17 ± 3 µM in [9] and 209 ± 27 µM in data set [10]. For the same protein, the results for the kcat in data set [8], in data set [9] and in data set [10] were 119 ± 11 s⁻¹, 152 ± 12 s⁻¹ and 281 ± 26 s⁻¹, respectively. Besides, the values for the kcat/Km in data set [8], in data set [9] and in [10] were 2.12e+07 ± 3.56e+06 M⁻¹ s⁻¹, 8.94e+06 ± 1.52e+06 M⁻¹ s⁻¹ and 1.34e+06 ± 214000 M⁻¹ s⁻¹, respectively.

B5: So3617 (Steccherinum ochraceum) (protein)
chain: VQIGPVTDLHITNANIAPDGFTRPAVLAGGTFPGPTISGNTGDNFQITVFNELTETSMLTDTSIHWHGLFQKGTNWADGPAFVTQCPIITGNSFDYNFNVPGQAGTYWYHSHLSTQYCDGLRGPFVVYDPNDPNASLYDVDDDTTIITLADWYHTLAQQEPIGAAITADATLINGLGRSFTNTTASPLSVITVQSGKRYRMRLVSISCDPNYQFSIDGHDMTIIEVDGVNSQQLTVDQIQIFAAQRYSFVLNANQPVGNYWIRAQPNSGGQGFDGGINSAILRYEGATVADPTTSPPTTFTSPLVETNLHPLADLGVPGQPFRGGADDPMVLNLGFANGRFTIDGVSFVPPTVPVLLQILSGAQNAQDLLPAGSVISLPPNSVIEVALPAGAAGGPHPFHLHGHNFAVVQSANNATPNYVNPIWRDTVSIGGTGDNVTIRFTTNNPGPWFLHCHIDWHLEAGFAIVFAEDIPDTASANPVPQAWSDLCPAYDQAHNISTAT
Turning to B5, in [11], the Km is 5.2 ± 0.6 µM, the catalytic constant (kcat) came out at 89 ± 10 s⁻¹ and the kcat/Km was found to be 1.71e+07 ± 2.69e+06 M⁻¹ s⁻¹. For the same protein, in data set [12], the Michaelis constant (Km) turned out to be 212 ± 10 µM, the catalytic constant (kcat) was 228 ± 21 s⁻¹ and the catalytic efficiency (kcat/Km) worked out at 1.08e+06 ± 111000 M⁻¹ s⁻¹.

B6: So3174 (Steccherinum ochraceum) (protein)
chain: VQIGPVTDLHITNANIAPDGFTRPAVLAGGTFPGPTISGNTGDNFQITVFNELTETSMLTDTSIHWHGLFQKGTNWADGPAFVTQCPIITGNSFDYNFNVPGQAGTYWYHSHLSTQYCDGLRGPFVVYDPNDPNASLYDVDDDTTIITLADWYHTLAQQEPIGAAITADATLINGLGRSFTNTTASPLSVITVQSGKRYRMRLVSISCDPNYQFSIDGHDMTIIEVDGVNSQQLTVDQIQIFAAQRYSFVLNANQPVGNYWIRAQPNSGGQGFDGGINSAILRYEGATVADPTTSPPTTFTSPLVETNLHPLADLGVPGQPFRGGADDPMVLNLGFANGRFTIDGVSFVPPTVPVLLQILSGAQNAQDLLPAGSVISLPPNSVIEVALPAGAAGGPHPFHLHGHNFAVVQSANNATPNYVNPIWRDTVSIGGTGDNVTIRFTTNNPGPWFLHCHIDWHLEAGFAIVFAEDIPDTASANPVPQAWSDLCPAYDQAHNISTAT
Regarding B6, the Km in data set [13] is reported as 2230 ± 205 µM; in [14] it was 3.8 ± 0.6 µM; in data set [15] it was 20 ± 2 µM; in data set [16], 81 ± 9 µM; in data set [17], 576 ± 86 µM. Also, the turnover number (kcat) in [13] turned out to be 152 s⁻¹; in data set [14], 104 ± 11 s⁻¹; in data set [15] it was 101 ± 9 s⁻¹; in data set [16], 240 ± 21 s⁻¹; in data set [17] it was 373 ± 27 s⁻¹. Also, the kcat/Km in [13] is 68000 M⁻¹ s⁻¹; in [14], 2.74e+07 ± 5.09e+06 M⁻¹ s⁻¹; in data set [15], 5.05e+06 ± 755000 M⁻¹ s⁻¹; in data set [16] it was 2.96e+06 ± 416000 M⁻¹ s⁻¹; in [17], 648000 ± 108000 M⁻¹ s⁻¹.
